Results reported in paper PMC1869045 (Journal of thrombosis and haemostasis : JTH, 2007).

Target: the molecule itself
Assay: FRET or BRET

B1: GPVI BRET pair (GPVI-GFP and GPVI-luciferase) (receptor, UniProt Q9HCN6 21-339, looked up)
chain: QSGPLPKPSLQALPSSLVPLEKPVTLRCQGPPGVDLYRLEKLSSSRYQDQAVLFIPAMKRSLAGRYRCSYQNGSLWSLPSDQLELVATGVFAKPSLSAQPGPAVSSGGDVTLQCQTRYGFDQFALYKEGDPAPYKNPERWYRASFPIITVTAAHSGTYRCYSFSSRDPYLWSAPSDPLELVVTGTSVTPSRLPTEPPSPVAEFSEATAELTVSFTNEVFTTETSRSITASPKESDSPAGPARQYYTKGNLVRICLGAVILIILAGFLAEDWHSRRKRLRHRGRAVQRPLPPLPPLPLTRKSNGGQDGGRQDVHSRGLCS
- stoichiometry N: 2
